According to the supplement of paper PMC7877785:
± gives the uncertainty stated by the source.

Assay: self-splicing fitness, log relative to wild type (ln ratio); higher = more splicing; Tetrahymena group I intron in knt gene, E. coli kanamycin selection, DiMSum; sequences stand for … in CUCUCU…GGAGGGAAAAGUUAUCAGGCAUGCACCUGGUAGCUAGUCUUUAAACCAAUAGAUUGCAUCGGUUUAAAAGGCAAGACCGUCAAAUUGCGGGAAAGGGGUCAACAGCCGUUCAGUACCAAGUCUCAGGGGAAACUUUGAGAUGGCCUUGCAAAGGGUAUGGUAAUAAGCUGACGGACAUGGUCCUAACCACGCAGCCAAGUCCUAAGUCAACAGAUCUUCUGUUGAUAUGGAUGCAGUUCACAGACUAAAUGUCGGUCGGGGAAGAUGUAUUCUUCUCAUAAGAUAUAGUCGGACCUCUCCUUAAUGGGAGCUAGCGGAUGAAGUGAUGCAACACUGGAGCCGCUGGGAACUAAUUUGUAUGCGAAAGUAUAUUGAUUAGUUUUGGAGUACUCGUGGUCG
Summary of the method: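 Six replicate transformations of E. coli BL21(DE3) with a pET-22b(+) library were grown overnight at 37°C or 30°C. The library randomised all eight P1ex-region intron nucleotides, the intron lying in the knt kanamycin-resistance gene, and plates were LB agar with or without 25 μg/mL kanamycin plus 100 μg/mL carbenicillin, 50 μM IPTG and 0.2% rhamnose. Pooled colonies were amplicon-sequenced on an Illumina HiSeq 2500, and fitness is the DiMSum error-weighted combination of wild-type-normalised replicate fold changes, kanamycin versus none.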

Sequence	self-splicing fitness (ln) (30 °C)	self-splicing fitness (ln) (37 °C)
UUGAAGCAAUAUUACGCUCG	0.0719 ± 0.11	0.419 ± 0.14
UUGUAGCAAUAUUACGUAAA	-1.72 ± 0.22	-0.0948 ± 0.21
CAACAGCAAUAUUACGGCGC	-1.94 ± 0.076	-1.24 ± 0.096
UUCUAGCAAUAUUACGCCAU	-2.66 ± 0.32	
ACGUAGCAAUAUUACGAAAA	-2.5 ± 0.21	-1.58 ± 0.19
UGCAAGCAAUAUUACGGAGA	-2.45 ± 0.21	-3.01 ± 0.29
GUAUAGCAAUAUUACGUGAA	-3.69 ± 0.25	-1.67 ± 0.17
UGGCAGCAAUAUUACGUUCG	-0.337 ± 0.068	0.283 ± 0.096
UUCCAGCAAUAUUACGUGAC	-2.56 ± 0.2	-1.89 ± 0.21
AAUGAGCAAUAUUACGGAAG	-3.49 ± 0.3	-2.63 ± 0.23
AGUAAGCAAUAUUACGUCAA	-3.78 ± 0.21	-2 ± 0.15
GAUGAGCAAUAUUACGUAAG	-3.37 ± 0.24	-2.11 ± 0.2
AGAAAGCAAUAUUACGCAUG	-1.66 ± 0.1	-0.374 ± 0.1
AGUGAGCAAUAUUACGCUAA		-2.09 ± 0.26
AUUGAGCAAUAUUACGAGGC	-3.05 ± 0.36	-2.78 ± 0.4
UACGAGCAAUAUUACGCGAG	-2.49 ± 0.15	-0.597 ± 0.14
CCAAAGCAAUAUUACGAACA	-3.48 ± 0.22	-3.23 ± 0.28
CGCCAGCAAUAUUACGCCAU		-2.11 ± 0.46
AUGAAGCAAUAUUACGAGCA	-0.665 ± 0.084	-0.299 ± 0.083
UAGAAGCAAUAUUACGCUCG	-1.06 ± 0.13	-0.333 ± 0.12
UCCCAGCAAUAUUACGUUUC	-4.35 ± 0.34	-2.4 ± 0.28
GGUGAGCAAUAUUACGGAGA	-1.36 ± 0.37	

Sequence	self-splicing fitness (ln) (30 °C)	self-splicing fitness (ln) (37 °C)
GCCGAGCAAUAUUACGCCCU	-2.8 ± 0.25	-0.0518 ± 0.2
ACUGAGCAAUAUUACGCUAG	-1.72 ± 0.2	-3.23 ± 0.34
AAGCAGCAAUAUUACGCUCU	-1.55 ± 0.098	-0.549 ± 0.11
CUCUAGCAAUAUUACGAUAA	-3.29 ± 0.27	-2 ± 0.24
UAAAAGCAAUAUUACGCACC	-2.48 ± 0.11	-1.49 ± 0.12
CGCGAGCAAUAUUACGGUGG	-2.1 ± 0.1	-1.43 ± 0.13
GCCAAGCAAUAUUACGAAGG	-2.52 ± 0.13	-2.15 ± 0.22
GGAUAGCAAUAUUACGCUGA	-1.13 ± 0.13	-1.19 ± 0.14
UUAAAGCAAUAUUACGAUCG	0.538 ± 0.098	0.338 ± 0.13
AGAGAGCAAUAUUACGUAAA	-3.76 ± 0.31	-3.12 ± 0.31
UAAAAGCAAUAUUACGUUUU	-3.26 ± 0.13	-2.82 ± 0.16
ACCGAGCAAUAUUACGCUGA	-3.32 ± 0.24	-1.24 ± 0.16
AGGCAGCAAUAUUACGAAUU	-1.29 ± 0.064	-1.4 ± 0.093
CCCUAGCAAUAUUACGCGUC	-3.35 ± 0.14	-3.21 ± 0.23
AUCCAGCAAUAUUACGGCAG	-1.78 ± 0.085	-0.158 ± 0.097
GGGAAGCAAUAUUACGCACA	-2.53 ± 0.26	-0.142 ± 0.41
UGAUAGCAAUAUUACGGGUC	-4.2 ± 0.34	-2.63 ± 0.37
UACAAGCAAUAUUACGACCU	-0.732 ± 0.068	-0.688 ± 0.086
UGGCAGCAAUAUUACGAUUG	-1.07 ± 0.074	0.135 ± 0.093
CGAAAGCAAUAUUACGUAAG	-0.262 ± 0.049	-0.000374 ± 0.07
CGAAAGCAAUAUUACGGUCU	-0.258 ± 0.071	-0.209 ± 0.089
GCCAAGCAAUAUUACGGUUC	-2.61 ± 0.16	-0.763 ± 0.12

Sequence	self-splicing fitness (ln) (30 °C)	self-splicing fitness (ln) (37 °C)
CCCAAGCAAUAUUACGCAUG	-3.29 ± 0.2	-2.34 ± 0.22
GCAUAGCAAUAUUACGCAUU	-2.81 ± 0.26	-0.0868 ± 0.17
CGCCAGCAAUAUUACGUUCG	-1.18 ± 0.069	0.325 ± 0.086
UUCUAGCAAUAUUACGUAGC		-2.19 ± 0.31
UUCAAGCAAUAUUACGCGCA	-0.732 ± 0.13	0.264 ± 0.17
UGAAAGCAAUAUUACGCCGA	-1.61 ± 0.14	-0.339 ± 0.14
GGAUAGCAAUAUUACGCCGU	-1.74 ± 0.25	-0.441 ± 0.2
AAAUAGCAAUAUUACGUAAC	-2.1 ± 0.2	-0.398 ± 0.2
GGUAAGCAAUAUUACGGCUG	-0.805 ± 0.14	0.356 ± 0.15
CAAUAGCAAUAUUACGUUUC	-4.35 ± 0.2	-3.13 ± 0.19
AAAAAGCAAUAUUACGAAGC		-1.85 ± 0.22
GGCAAGCAAUAUUACGUAUA	-1.02 ± 0.066	-0.515 ± 0.07
CUUGAGCAAUAUUACGGGGG	-2.81 ± 0.2	-3.25 ± 0.39
UCCCAGCAAUAUUACGAAGC	-3.98 ± 0.42	-1.71 ± 0.24
CUCUAGCAAUAUUACGGUCU	-3.26 ± 0.2	-3.06 ± 0.23
GUUCAGCAAUAUUACGUAAC	-0.462 ± 0.17	-0.994 ± 0.26
AGUUAGCAAUAUUACGUAAU	-2.56 ± 0.14	-1.47 ± 0.14
GGUUAGCAAUAUUACGAUCU	-1.04 ± 0.24	-0.76 ± 0.24
CCGGAGCAAUAUUACGCCUA	-2.12 ± 0.26	-2.59 ± 0.29
UCUUAGCAAUAUUACGGCGA	-0.253 ± 0.15	-0.295 ± 0.13
GAGCAGCAAUAUUACGAGUU	-2.48 ± 0.13	-1.1 ± 0.13
UUUAAGCAAUAUUACGAGUU	-2.48 ± 0.17	-2.09 ± 0.17
